From publication PMC10021056 (Nature Communications, 2023) come the findings set out here.

Experiment [1] has as its target prefusion-stabilized Nipah virus fusion (F) glycoprotein, construct NiVF_prefusion (Nipah virus, Malaysian strain, stabilised).
Experiment [2] deals with postfusion Nipah virus fusion (F) glycoprotein, construct NiVF_postfusion (Nipah virus, Malaysian strain, stabilised).

B1: 201805_NiV_P2_D4 (antibody, V domains shown)
VH: EVQLQQSGAELVKPGASVKMSCKASGYTFTDYSIHWVKQKSGQGLEWIGWFYPGSGSIKNSDKVKDEAILTADKSSSTVYLELSSLTSEDSAVYFCARHGGGYDYGRAWFVYWGQGTLVTLEQ
VL: FTQMTQSPKFLLVSAGDRVTITCKASQSVSNDVAWYQQKPGQSPKLLIYYASNRYTGVPDRFTGSGYGTDFTFTISTVQAEDLAVYFCQQDYGSPYTFGGGTKLKN
For the molecule B1, the binding result in experiment [1] is “binds”.

B2: 201805_NiV_P2_F7 (antibody, V domains shown)
VH: QVQLQQSGAELVKPGASVKMSCKASGYTFTNYWIHWVKQRPGQGLEWIGEIDPSNGNSDHNQDFKVKATLTVDTFSSTAYMQLNSLTSEDSAVYYCARSRYYFDYWGQGTTLTVSA
VL: QIVLPQSPAIMSASPGEKVTLTCSARSSVSSGYLYWYQQKPGSSPKLWIYSTSNLASGVPTRFSGSGSGTSYSLTISSMEAEDAASYFCHQWSSYPPTFGGGTKLEIK
In the case of B2, the binding result in experiment [2] and in experiment [1] was “binds” in each case.

B3: 201805_NiV_PL4_E11 (antibody, V domains shown)
VH: QVQLQQSGAELVKPGASVKLSCKASGYTFTNYDINWVRQRPEQGLEWIGWIFPGDGTTSYNEKFKDKATLTTDKSSSTAYMQLSRLTSEDSTVYFCARLGWGGAMDYWGQGTSVTVSA
VL: YTLMTQSPLSLPVSLGDQASISCRSSQSIVHSNGNTYLQWYLQKPGQSPKLLIYKVSNRFSGVPDRFSGSGSGTDFTLKISRVEAEDLGVYYCFQGSHVPYTFGGGPSNKR
Consider B3, for which the binding result in experiment [2] and in experiment [1] was “binds” throughout.

B4: 201805_NiV_PL3_G2 (antibody, V domains shown)
VH: QIQLVQSGPELKKPGETVKISCTTSGFIFRNYGVNWVKRAPGKGLKWMGWIDAYTGEPAYADDFKGRFAFSLEMSANTAYLQITNLKNEDMATYFCARQGWGEAMDYWGQGTSVTVSS
VL: DVLMTQSPLSLPVSSGDQASISCRSSQTFVHSNGNTYLEWYLQKPGQSPKLLIYKVSNRFSGVPDRFIGSGSGTDFTLKISRVEADDLGVYYCFQGSHVPWAFGGGTKLEIK
As to B4, the binding result in experiment [2] and in experiment [1] was “binds” throughout.

B5: 201805_NiV_PL3_G11 (antibody, V domains shown)
VH: QVQLQQSGAELVKPGASVKLSCKASGYIFTNYDINWVRQRPEQGLEWIGWIFPGDVSTNYNEKFKGKATLTTDKSSSTAYMQLSRLTSEDSAVYFCARRSFQAMDYWGQGTSVTVSA
VL: DVLMTQTPLSLPVSLGDQASISCRSSQSIVHSNGNTYLEWYLQKPGQSPKLLIYKVSNRFSGVPDRFSGSGSGTDFTLKISRVEAEDLGVYYCFQGSHVPWTFGGGTKLEIK
As for B5, the binding result in experiment [2] and in experiment [1] was “binds” in each case.

B6: 201805_NiV_P1_G1 (antibody, V domains shown)
VH: QVQLQQSGAELAKPGASVKLSCKATGYTFTGSWIEWVKLRPGHGLEWFGEIFPGTGSVKHNEKFRGKAIITAETSSNTAYMKLSSLTTEDSAIYFCSRSNTNYEFFDVWGTGTTVTVSS
VL: EILLTQSPAIISASPGERVTFTCSASSGVNYMNWYQQKPGSSPKIWIYGVSNLASGVPARFSGSGSGTSFSFTITNLEAEDVATYYCQQRSTFPLTFGAGTKLEIK
In the case of B6, the binding result in experiment [2] and in experiment [1] was “binds” each time.

B7: 201805_NiV_PL4_C7 (antibody, V domains shown)
VH: FEESGGLVQPGGSMKISCVASGFTFSNYWMNWVRQSPEKGLEWIAQIRLKSDNYATHYAESVKGRFTISRDDSKSSVYLQMNNLRAEDSGIYYCTGILDYWGQGTSVTVSQ
VL: YIQMTQSPSSMSVSLGDTVSITCHASQGISSNIGWLQQKPGKSFKVLIYHGTNLEDGVPSRFSGSGSGADYSLTISSLESEDFADYYCVQYAQFPYTFGGGPNDKT
For B7, the binding result in experiment [1] is listed as “binds”.

B8: 201805_NiV_PL3_H6 (antibody, V domains shown)
VH: EVQLEESGGGLVKPGGSLKLSCTASGFAFSTYDMSWVRQTPEKRLEWVAYISSGGGSTYYPDSVKGRFTISRDNARNTLYLQMSSLKSDDTAMYYCVRDDGYYGGAWFAYWGQGTLVTVSA
VL: DIQMTQTTSSLSASLGDRVTISCRASQDIRNYLNWYQQKPDGTVKLLIYYTSRFHSGVPSRFSGSGSGTDYSLTINNLEQEDITTYFCQQGYILPWTFGGGTKLEIK
Turning to B8, the binding result in experiment [2] and in experiment [1] was “binds” each time.

B9: 201805_NiV_PL4_E1 (antibody, V domains shown)
VH: EVQLEESGGGLVPGGSLKLSCAASGFTFSDYYMYWVRQTPEKRLEWVATISDGGSYTYYPDSVKGRFTISRDNAKNNLYLQMSSLKSEDTAMYYCAREKPDRGHYYAMDYWGQGTSVTVLQ
VL: IQMTQSSSSFSVSLGDRVTITCKASEDIYNRLAWYQQKPGNAPRLLISGATSLETGVPSRFSGSGSGKDYTLSITSLQTEDVATYYCQQYWSTPYTFGGGTKLKN
Turning to B9, the binding result in experiment [1] was “binds”.

B10: 201805_NiV_PL3_E1 (antibody, V domains shown)
VH: RFRLQQSGAELVKPGASVKLSCRASGYIFTSYWMHWVKQRPGQGLEWIGMIHPNSGSPNYNEKFKSKATLTVDNSSSTAYMQLSSLTSEDSAVYYCARTLLGQGAWFAYWGQGTLVTLAA
VL: YIQMTLSPATLSVTPGDRVSLSCRASQSISDFLHWYQQKSHESPRLLIKYASQSISGIPSRFSGSGSGSDFTLSINSVEPEDVGVYYCQNGHSFPYTFGGGTKLKT
As for B10, the binding result in experiment [2] and in experiment [1] was “binds” each time.

B11: 201805_NiV_P1_A6 (antibody, V domains shown)
VH: LCLLTSSRSGLVRPGASVKLSCKASGYSFTSYWMNWVKQRPGHGLEWIGMIHPSDSETRLNQRFKDKATLTVDKSSSTAYMQLSSPTSEDSAVYYCAREDFYAMDYWGQGTSVTFSA
VL: DIVMSQSPSSLAVSVGEKITMSCKSSQSLLYSSNKKKYLAWYQQKPGQSPKLLIYWASTRESGVPDRFTGSGSGTDFTLTISSVKAEDLAVYYCQQYYSYPYTFGGGPSNKR
As to B11, the binding result in experiment [2] and in experiment [1] was “binds” throughout.

B12: 201805_NiV_PL3_H3 (antibody, V domains shown)
V domain 1: EVQLEESGGGLVPGGSLKLSCAASGFTFISYAMSWIRQTPEKRLEWVATITSGGSYTYYPDSVMGRFTISRDNAKNTLHLQMSSLRSEDTAIYYCARGGYGSISPYYFDYWGQGTTLTSSA
V domain 2: DIQMTQSSSSFSVSLGDRVTITCKAGEDIYNRLAWYQQKPGNAPRLLISGAISLETGVPSRFSGSGSGKDYTLSITSLQTEDVATYYCQQYWTNPWTFGGGTKLKSN
On to B12, for which the binding result in experiment [2] and in experiment [1] was “binds” throughout.

B13: 201805_NiV_PL3_A4 (antibody, V domains shown)
VH: QVQLQQSGTELVKPGASVKLSCKASGYTFTSYWMHWVKQRPGQGLEWIGNINPSNGYTNNNEKFKSKATLTVDKSSSTAYMQLSSLTSEDSAVYYCARGGIYYYGSSLYYYTMDYWGQGTSVTVSS
VL: DIQMTQSSSSFSVSLGDRVTITCKASEDIYNRLAWYQQKPGNAPRLLISDATSLETGVPSRFSGSGSGKDYTLSITSLQTEDVATYYCHQYWSTPWTFGGGTKLEIK
Consider B13, for which the binding result in experiment [1] is listed as “binds”.

B14: 201805_NiV_PL4_D5 (antibody, V domains shown)
VH: QIQLVQSGPELKKPGETVKISCKASGFTFTNYGINWVKQAPGKGLKWMGWTDTFTGEPTYADDFKGRFAFSLETSASTAYLQINNLKNEDMATYFCARQGWGEAMDYWGQGTSVTVSA
VL: DVLDEQFHFLPVSLGDQASISCRSSQSIVHSNGNTYLEWYLQKPGQSPKLLIYKVSNRFSGVPDRFSGSGSGTDFTLKISRVEAEDLGVYYCFQGSHVPWTFGGGTKLEIK
Turning to B14, the binding result in experiment [2] and in experiment [1] was “binds” each time.
